In patent publication US20070299013A1 (CLEVELAND STATE UNIVERSITY, published 2007):
Blank lines part the entries; values can stand above or below the binder they belong to. Where no end group is shown, it is not given here. [ ]: non-standard residue; d: D form. sY = N[C@@H](Cc1ccc(OS(=O)(=O)O)cc1)C(=O)O

What was measured:
[1] = biological target: T1, N-alpha-[(acetylthio)acetyl]-Phe-Pro-Arg-thrombin (ATA-FPR-thrombin) coupled to agarose through the active … (UniProt P00734 328-622); assay: chromatography on 2.5 ml thrombin-agarose, LC/MS of fraction #7 (before the salt elution)
Protocol: (§1) Since some of the peptides contain aromatic amino acid residues, their concentration was also measured by optical density.
(§2) Each run represents 400 μg of peptide. […] Elution was performed with 2M NaCl and was started at the point indicated by the arrow (fraction #30). The presence of the peptides in the corresponding fractions was monitored by absorbance at 280 nm (shown on the y axis) and by LC/MS (inset).

human prothrombin [2] = biological target: T2, human prothrombin (human, UniProt P00734 44-622); assay: kinetic analysis of prothrombinase inhibition
T2 construct: Zymogen substrate of prothrombinase; also called factor II

[3] = biological target: T1, N-alpha-[(acetylthio)acetyl]-Phe-Pro-Arg …; assay: chromatography on 2.5 ml thrombin-agarose, LC/MS of fractions
Protocol: as §1, §2

human prothrombin [4] = biological target: T2, human prothrombin; assay: cell-based or functional assay
human prothrombin [5] = biological target: T2, human prothrombin; assay: calculated from IC50 (1.6 µM) of prothrombinase inhibition, IC50=Ki(1+S0/Km)
Protocol: All experiments were performed in triplicates or as indicated. The concentration of each peptide given in the figures and figure legends is their final concentration in the assay. The data were stored using the software FL WinLab (Perkin-Elmer Corp, Norwalk Conn.) and further analyzed and plotted with the software Prizm (GraphPad, San Diego, Calif.). In some cases the data were also analyzed and plotted using DeltaGraph (DeltaPoint, Monterey, Calif.).

human prothrombin [6] = biological target: T2, human prothrombin; assay: calculated from IC50 of prothrombinase inhibition, IC50=Ki(1+S0/Km), Km 0.4 µM, prothrombin 350 nM
Protocol: The buffer used in all cases was composed of 20 mM Hepes, 0.15 M NaCl, 5 mM CaCl₂, pH 7.4 [HBS(Ca²⁺), “assay buffer”]. […] All experiments were performed in triplicates or as indicated. The concentration of each peptide given in the figures and figure legends is their final concentration in the assay. The data were stored using the software FL WinLab (Perkin-Elmer Corp, Norwalk Conn.) and further analyzed and plotted with the software Prizm (GraphPad, San Diego, Calif.). In some cases the data were also analyzed and plotted using DeltaGraph (DeltaPoint, Monterey, Calif.).

[7] = biological target: T1, N-alpha-[(acetylthio)acetyl]-Phe-Pro-Arg …; assay: chromatography on 2.5 ml thrombin-agarose, A280
Protocol: as §1, §2

Binder: NRLAAALGIR (Last of five overlapping 10-mers) [HC5 peptide (from region 680-709 of human factor Va heavy chain)]
binding result [1]: no binding (tested: 400 µg of peptide)

B1: double sulfonated peptide DYDYQ (1, 2), DY(-SO3)DY(-SO3)Q (peptide)
peptide: D[sY]D[sY]Q
notes: Sulfonated form of the factor Va 695-699 motif; also called D5Q1,2
binding result (human prothrombin [2]): binds

Binder: LEPEDEESDA [HC2 peptide (from region 680-709 of human factor Va heavy chain)]
binding result [3]: no binding (tested: 400 µg of peptide)

Binder: DYDYQNRLAA (Synthetic 10-residue peptide) [HC4 peptide (amino acid residues 695-704 of human factor Va heavy chain)]
IC50 of inhibition of prothrombinase activity (DAPA thrombin formation assay) (human prothrombin [4]): 10 µM
Ki (human prothrombin [6]): 5.3 µM

Binder: EESDADYDYQ (Synthetic 10-residue peptide) [HC3 peptide (amino acid region 690-699 of human factor Va heavy chain)]
IC50 of inhibition of prothrombinase activity (DAPA thrombin formation assay) (human prothrombin [4]): 12 µM
Ki (human prothrombin [6]): 6.3 µM

Next, values leading:

binding result [3]: no binding (tested: 400 µg of peptide)
Binder: KMHDRLEPED (First of five overlapping 10-mers) [HC1 peptide (from region 680-709 of human factor Va heavy chain)]

IC50 of inhibition of prothrombinase function (human prothrombin [4]): 1.6 µM
Ki (human prothrombin [5]): 0.85 µM
B2: pentapeptide DYDYQ (Asp695-Tyr696-Asp697-Tyr698-Gln699 of human factor Va heavy chain) (peptide)
peptide: DYDYQ
notes: Synthetic, non-sulfonated pentapeptide; also called D5Q

binding result [7]: no binding (tested: 400 µg of peptide)
B3: P15H control pentadecapeptide (amino acid sequence 337-351 from the middle portion of human factor Va heavy chain) (peptide)
peptide: PVIPANMDKKYRSQH
notes: Negative control peptide; also called control peptide
